Assay results published in the supplement of paper PMC10567573.

B1: DLC1 (parent)
chain: NDDSADYQHFLQDCVDGLFKEVKE

Variants of: B1
Experiment: protein stability index of a GFP-peptide fusion (GPS, HEK-293T) (PSI 1-6); higher = more stable
Conditions: c terminus: a fixed tail appended
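Also: lentivirally expressed fusions sorted by FACS into six bins by GFP to DsRed ratio, PSI derived from sequencing read proportions per bin multiplied by bin number.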

Variant | protein stability index
Y7T | 3.31
Y7H | 4.36
Y7S | 3.89
Y7N | 5.14
Y7A | 3.78
Y7D | 4.17
Y7I | 1.75
Y7E | 4.11
Y7K | 4.33
Y7R | 4.1
Y7G | 4.01
Y7P | 4.62
Y7M | 2.08
Y7F | 2.05
Q12S | 3.3
Q12F | 3.48
Q12R | 2.42
Q12T | 4.32
Q12M | 3.73
Q12Y | 3.71
Q12E | 4.75
Q12D | 4.83
Q12W | 1.79
Q12P | 4.15

Variant | protein stability index
Q12K | 2.33
Q12G | 4.34
Q12H | 3.17
Q12L | 3.31
F10I | 1.78
F10Y | 2.75
F10W | 1.98
F10L | 1.62
F10C | 2.66
F10K | 3.6
F10E | 3.75
F10M | 2.34
F10H | 4.34
F10G | 4.53
F10A | 2.08
F10R | 3.96
F10Q | 3.16
Q8D | 2.96
Q8L | 1.77
Q8P | 2.64
Q8N | 3.03
Q8M | 1.43
Q8A | 2.4
Q8I | 2.26

Variant | protein stability index
Q8G | 2.75
Q8S | 2.88
Q8K | 2.1
Q8E | 2.62
Q8C | 1.69
Q8F | 2.65
Q8W | 3.5
Q8R | 2.08
Q8T | 2.44
N1R | 2.53
N1Y | 2.73
N1W | 1.28
N1M | 1.79
N1F | 1.5
N1G | 1.9
N1E | 3
N1K | 3.44
N1D | 1.72
N1Q | 2.69
N1S | 2.6
N1H | 2.29
N1I | 1.59
N1T | 2.6
H9V | 1.92

Variant | protein stability index
H9I | 2.48
H9Q | 2.23
H9F | 2.32
H9P | 3.71
H9K | 2.63
H9M | 2.74
H9L | 2.21
H9S | 3.43
H9Y | 2.24
H9C | 2.53
H9G | 2.62
H9D | 2.83
K23P | 4.57
K23V | 2.05
K23F | 2.83
K23A | 2.56
K23Q | 2.75
K23R | 2.57
K23S | 3.09
K23H | 3.88
K23W | 2.66
K23N | 3.37
K23D | 4.98
K23T | 1.65

Variant | protein stability index
E21G | 3.51
E21I | 3.01
E21F | 2.51
E21K | 2.57
E21R | 2.55
E21D | 4.67
E21W | 2.28
E21M | 2.24
E21V | 1.83
E21C | 2
E21P | 3.94
E21H | 2.42
E21T | 1.98
E21S | 3.27
E21Y | 2.03
E21A | 2.29
A5F | 1.68
A5G | 2.4
A5N | 2.9
A5Y | 2.17
A5K | 2.93
A5M | 2.15
A5L | 2.73
A5R | 2.49

Variant | protein stability index
A5S | 1.91
A5Q | 2.55
A5E | 2.92
A5H | 2.55
A5I | 2.05
K20C | 3.38
K20W | 2.95
K20F | 2.93
K20R | 2.51
K20A | 3.35
K20N | 3.08
K20L | 2.87
K20I | 3.05
K20Q | 3.23
K20G | 3.84
K20Y | 2.88
K20M | 2.68
K20H | 3.45
K20E | 3.55
K20P | 4.86
L18W | 4.64
L18N | 5.43
L18R | 4.58
L18K | 5.3

Variant | protein stability index
L18H | 5.37
L18E | 5.3
L18Y | 3.71
L18I | 3.73
L18T | 4.96
L18F | 3.33
L18D | 5.73
L18S | 5.03
L18G | 5.6
L18C | 5.13
L18V | 4.53
L18A | 5.02
L18Q | 5.2
D2T | 2.65
D2I | 2.18
D2G | 4.54
D2V | 1.96
D2H | 2.66
D2M | 2.48
D2A | 2.17
D2W | 2.15
D2N | 2.27
V22H | 5.31
V22P | 4.26

Variant | protein stability index
V22F | 3.84
V22I | 2.58
V22A | 4.42
V22T | 4.87
V22E | 5.42
V22M | 4.08
V22D | 5.46
V22K | 5.5
V22C | 4.3
V22Y | 4.05
V22R | 5.08
V22N | 5.27
S4D | 2.9
S4V | 2.57
S4L | 2.91
S4Y | 2.22
S4H | 2.65
S4K | 1.36
S4C | 1.56
S4P | 2.34
S4A | 2.35
S4R | 2.41
S4I | 2
S4G | 3.56

Variant | protein stability index
G17N | 2.39
G17K | 2.73
G17W | 2.43
G17S | 2.58
G17E | 2.41
G17C | 1.71
G17T | 2.21
G17P | 4.92
G17I | 2.19
G17M | 2.18
G17Q | 2.44
G17H | 2.37
G17D | 4.28
F19V | 2.89
F19P | 5.17
F19W | 2.96
F19M | 3.72
F19H | 4.82
F19K | 5.25
F19Y | 2.94
F19D | 5.61
F19G | 5.54
F19I | 2.72
F19L | 1.51

Variant | protein stability index
F19Q | 5.08
F19N | 5.21
F19R | 4.46
F19S | 5.67
F19C | 3.38
D6P | 3.38
D6Q | 3.12
D6M | 2.63
D6V | 2.24
D6N | 2.4
D6I | 2.32
D6H | 3.3
D6A | 2.32
D6E | 3.29
D6G | 3.62
D6L | 2.03
V15Y | 3.61
V15K | 4.71
V15P | 4.6
V15M | 4.34
V15I | 2.68
V15S | 4.71
V15T | 5.09
V15D | 4.8

Variant | protein stability index
V15L | 3.34
V15G | 5.45
V15A | 4.04
V15R | 4.73
V15Q | 4.74
V15W | 3.8
V15H | 4.94
V15E | 4.9
V15F | 3.85
D16Y | 2.21
D16L | 2.12
D16M | 2.81
D16K | 2.56
D16H | 3.44
D16V | 2.99
D16Q | 2.31
D16R | 4.08
D16N | 2.81
D16I | 1.49
D16T | 3.28
D16A | 2.08
D16F | 2.34
D16C | 2.29
D16S | 3.22

Variant | protein stability index
D16W | 1.8
D16E | 2.08
D16P | 4.34
D13G | 2.42
D13N | 2.38
D13K | 2.05
D13I | 1.84
D13H | 1.51
D13M | 2.34
D13V | 1.56
D13R | 2.02
D13Y | 2.14
D13F | 1.86
D13S | 2.2
D13A | 1.79
D13E | 2.66
D13C | 2.09
D13P | 2.27
D13L | 1.76
D13T | 2.16
E24W | 1.67
E24K | 2.2
E24F | 2.11
E24M | 2.3

Variant | protein stability index
E24C | 2.33
E24H | 1.88
E24D | 2.33
E24Y | 1.66
E24G | 3.66
E24T | 2.81
E24V | 2.69
E24I | 2.1
E24A | 2.17
E24R | 2.01
E24Q | 2.51
C14A | 2.33
C14F | 2.49
C14H | 5.11
C14K | 4.78
C14G | 4.86
C14D | 5.03
C14R | 4.87
C14I | 2.41
C14E | 5.38
C14T | 4.12
C14Q | 4.71
C14Y | 2.54
L11R | 5.35

Variant | protein stability index
L11M | 3.29
L11S | 5.1
L11G | 5.35
L11I | 3.54
L11D | 5.47
L11A | 5.62
L11E | 5.25
L11T | 4.94
L11W | 3.78
L11K | 5.08
L11P | 4.51
L11V | 4.18
D3M | 2.26
D3E | 3.85
D3A | 2.77
D3T | 2.2
D3V | 3.69
D3H | 2.17
D3R | 1.79
D3W | 1.71
D3S | 2.4
D3G | 2.23
